Article PMC3140584, “Structure–function relationships of the competence lipoprotein ComL and SSB in meningococcal transformation”

T1: ComL (Neisseria meningitidis MC58, UniProt Q9K0B1 17-267)
T1 sequence: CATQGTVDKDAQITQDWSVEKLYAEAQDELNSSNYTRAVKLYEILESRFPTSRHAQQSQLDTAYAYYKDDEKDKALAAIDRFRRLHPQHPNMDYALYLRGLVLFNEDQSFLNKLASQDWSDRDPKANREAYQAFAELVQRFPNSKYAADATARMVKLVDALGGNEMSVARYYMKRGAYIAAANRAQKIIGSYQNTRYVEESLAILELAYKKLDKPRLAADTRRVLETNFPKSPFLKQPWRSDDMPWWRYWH


Target: T1, ComL
Experiment: EMSA; 5 mM Mg2+; EMSA: 4.5 fmol DNA in 10 µl; 10% glycerol, 5 mM MgCl2, 0.02 mg/ml BSA, 1 mM DTT, with half volume of protein in 50 mM NaH2PO4, 300 mM NaCl, pH 8.0, 0.1% DDM (final about 25 mM phosphate, 150 mM NaCl, 0.05% DDM); 37 °C, 15 min; 6% PAGE Tris/glycine/EDTA
Details: protein: recombinant, tags: C-terminal 6xHis, label: 5'-32P

Row | Binder | apparent K (half saturation) [nM] | apparent K (half saturation) (blunt) [nM]
1 | HH10 ssDNA without DUS (ssDNA) DNA: AACAACAACAAAAGGCCTGTCATCCAACTTCCGGACAGTAAACAACAACAAC | 926 | 
2 | HH10/HH11 dsDNA without DUS (dsDNA) DNA 1: AACAACAACAAAAGGCCTGTCATCCAACTTCCGGACAGTAAACAACAACAAC DNA 2: GTTGTTGTTGTTTACTGTCCGGAAGTTGGATGACAGGCCTTTTGTTGTTGTT |  | 467
